These results are taken from publication PMC3994186 (Oncogene, 2013).

For the test, the target named is T1, His-tagged RAD51C (human, UniProt O43502 1-376).
T1 sequence: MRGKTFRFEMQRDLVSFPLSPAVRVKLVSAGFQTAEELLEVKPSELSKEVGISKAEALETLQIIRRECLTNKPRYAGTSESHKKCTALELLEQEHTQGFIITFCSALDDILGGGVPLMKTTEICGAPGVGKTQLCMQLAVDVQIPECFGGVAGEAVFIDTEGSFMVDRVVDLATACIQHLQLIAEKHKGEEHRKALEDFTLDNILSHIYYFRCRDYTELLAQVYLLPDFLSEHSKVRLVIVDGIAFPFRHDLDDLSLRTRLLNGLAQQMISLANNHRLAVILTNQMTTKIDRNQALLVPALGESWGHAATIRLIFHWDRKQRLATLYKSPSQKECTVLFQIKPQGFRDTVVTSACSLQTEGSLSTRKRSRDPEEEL
Description: pull-down.

Changes are numbered by the printed parent chain. Names may count otherwise.

B1: MBP fused to the WD40 domain of PALB2 (amino acids 859-1186), wild type (domain or fragment)
chain: SELKNPSGSCSVDVSAMFWERAGCKEPCIITACEDVVSLWKALDAWQWEKLYTWHFAEVPVLQIVPVPDVYNLVCVALGNLEIREIRALFCSSDDESEKQVLLKSGNIKAVLGLTKRRLVSSSGTLSDQQVEVMTFAEDGGGKENQFLMPPEETILTFAEVQGMQEALLGTTIMNNIVIWNLKTGQLLKKMHIDDSYQASVCHKAYSEMGLLFIVLSHPCAKESESLRSPVFQLIVINPKTTLSVGVMLYCLPPGQAGRFLEGDVKDHCAAAILTSGTIAIWDLLLGQCTALLPPVSDQHWSFVKWSGTDSHLLAGQKDGNIFVYHYS
With B1, the binding result was “binds”.

B2: MBP-PALB2 WD40 domain T1030I (domain or fragment)
chain: B1 chain with T172I
Turning to B2, the binding result is on record as “binds”.

B3: MBP-PALB2 WD40 domain L939W (domain or fragment)
chain: B1 chain with L81W
B3: the binding result is “binds”.
